Test results reported in US20050118646A1.

Legend:
[1] = target: Neutravidin (UltraLink neutravidin beads, Pierce; neutravidin protein) (UniProt P02701); assay: ELIFA; binding of the biotinylated protein to Ultralink Neutravidin beads (through biotin)
[2] = target: Neutravidin (UltraLink neutravidin beads, Pierce; neutravidin protein) (UniProt P02701); assay: Western blot (streptavidin-HRP) of sample and supernatant after binding to Neutravidin beads

Chain of UniProt P02701 (P02701 25-152): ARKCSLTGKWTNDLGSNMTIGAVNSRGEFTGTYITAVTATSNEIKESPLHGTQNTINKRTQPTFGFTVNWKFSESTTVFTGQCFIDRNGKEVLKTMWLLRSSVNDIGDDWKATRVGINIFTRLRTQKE

Substance	Binding [%] [1] [%]	percent bound to the beads [2] [%]
E25-tagged CDKN1b (AviTag-(G4S)2-TEV cleavage site-His6-PrC-CDKN1b), biotinylated (from UniProt P46527 1-198)	100	> 80
E25-tagged Grb2 (AviTag-(G4S)2-TEV cleavage site-His6-PrC-Grb2), biotinylated (from UniProt P62993 1-217)	100	> 80
E24-tagged NAPA (AviTag-TEV cleavage site-His6-PrC-NAPA), biotinylated (from UniProt P54920 1-295)	100	> 80
E24-tagged CDKN1b (AviTag-TEV cleavage site-His6-PrC-CDKN1b), biotinylated (from UniProt P46527 1-198)	100	> 80
E24-tagged Grb2 (AviTag-TEV cleavage site-His6-PrC-Grb2), biotinylated (from UniProt P62993 1-217)	100	> 80
E25-tagged NAPA (AviTag-(G4S)2-TEV cleavage site-His6-PrC-NAPA), biotinylated (from UniProt P54920 1-295)	100	> 80
